Measurements as given in patent publication US20260217847A1 (NANJING REGENECORE BIOTECH, published 2026).

Tests used:
Assay in all cases: peptide ELISA on streptavidin plate, 2 µg/mL 2H7-hFc, anti-hFc HRP
[1] = molecular target: T1, TfR1 peptide D1-helix3 (human)
T1 construct: Synthetic peptide, captured on a streptavidin-coated plate; also called peptide No. 16
T1 peptide: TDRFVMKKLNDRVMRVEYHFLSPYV
Description: (§1) The peptide-antibody binding was identified using a standard enzyme-linked immunosorbent assay (ELISA). The steps were as follows: [0244] (1) The wells of an ELISA plate were coated with 100 μL of 2 μg/mL SA (streptavidin) protein at 4° C. overnight. […] (2) The wells of the ELISA plate were washed with PBST buffer. After adding 200 μL of 2% BSA, the plate was blocked at 37° C. for 1 h. […] (3) The peptide protein was diluted to 2 μg/mL, and a negative control and a positive control (AVI-tagged TfR1 protein) were included. Each experiment contained duplicate controls. […] (4) The wells of the ELISA plate were washed multiple times with PBST buffer. Then, 100 μL of the diluted peptide protein solution from step (3) was added into wells in duplicate, and along with the negative control wells, incubated at 37° C. for 1 h. [0248] (5) The wells of the ELISA plate were washed multiple times with PBST buffer. […] [0249] (6) The wells of the ELISA plate were washed multiple times with PBST buffer. Then, 100 μL of 2× anti-hFc HRP secondary antibody was added, and the plate was incubated at 37° C. for 1 h. [0250] (7) The wells of the ELISA plate were washed multiple times with PBST buffer. After adding 100 μL of TMB chromogenic solution, the reaction was carried out in the dark at room temperature for 30 min. [0251] (8) 100 μL of stop solution (1 mol/L HCl) was added to terminate the reaction. OD450 was measured using a microplate reader, and the readings were recorded.

[2] = molecular target: T2, TfR1 peptide D1-helix4 (human)
T2 construct: Synthetic peptide, captured on a streptavidin-coated plate; also called peptide No. 3
T2 peptide: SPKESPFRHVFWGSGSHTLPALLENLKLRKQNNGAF
Description: as §1

[3] = molecular target: T3, TfR1 peptide D2-loop1-K (human)
T3 construct: Synthetic peptide, captured on a streptavidin-coated plate; also called peptide No. 13
T3 peptide: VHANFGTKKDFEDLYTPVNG
Description: as §1

[4] = molecular target: T4, TfR1 peptide D1-helix2-helix3 (human)
T4 construct: Synthetic peptide, captured on a streptavidin-coated plate; also called peptide No. 4
T4 peptide: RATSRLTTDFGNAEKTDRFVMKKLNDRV
Description: as §1

[5] = molecular target: T5, TfR1 peptide D1-helix3-helix4 (human)
T5 construct: Synthetic peptide, captured on a streptavidin-coated plate; also called peptide No. 19
T5 peptide: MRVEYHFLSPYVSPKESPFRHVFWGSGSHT
Description: as §1

[6] = molecular target: T6, TfR1 peptide D1-helix1-helix2 (human)
T6 construct: Synthetic peptide, captured on a streptavidin-coated plate; also called peptide No. 18
T6 peptide: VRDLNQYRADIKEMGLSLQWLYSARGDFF
Description: as §1

[7] = molecular target: T7, TfR1 peptide D2-loop1-loop2 (human)
T7 construct: Synthetic peptide, captured on a streptavidin-coated plate; also called peptide No. 15
T7 peptide: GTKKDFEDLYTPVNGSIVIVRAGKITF
Description: as §1

[8] = molecular target: T8, TfR1 peptide D2-loop3-K (human)
T8 construct: Synthetic peptide, captured on a streptavidin-coated plate; also called peptide No. 14
T8 peptide: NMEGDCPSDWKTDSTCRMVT
Description: as §1

[9] = molecular target: T9, TfR1 peptide D3-helix2-helix3 (human)
T9 construct: Synthetic peptide, captured on a streptavidin-coated plate; also called peptide No. 9
T9 peptide: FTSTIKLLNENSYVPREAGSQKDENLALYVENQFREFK
Description: as §1

[10] = molecular target: T10, TfR1 peptide D3-helix1 (human)
T10 construct: Synthetic peptide, captured on a streptavidin-coated plate; also called peptide No. 5
T10 peptide: RLYWDDLKRKLSEKLDSTD
Description: as §1

[11] = molecular target: T11, TfR1 peptide D1-helix5 (human)
T11 construct: Synthetic peptide, captured on a streptavidin-coated plate; also called peptide No. 17
T11 peptide: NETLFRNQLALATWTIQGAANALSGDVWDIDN
Description: as §1

[12] = molecular target: T12, TfR1 peptide D3-helix3 (human)
T12 construct: Synthetic peptide, captured on a streptavidin-coated plate; also called peptide No. 7
T12 peptide: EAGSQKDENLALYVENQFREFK
Description: as §1

[13] = molecular target: T13, TfR1 peptide D3-helix3-loop1 (human)
T13 construct: Synthetic peptide, captured on a streptavidin-coated plate; also called peptide No. 10
T13 peptide: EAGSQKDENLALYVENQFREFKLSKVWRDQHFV
Description: as §1

[14] = molecular target: T14, TfR1 peptide D2-loop2-K (human)
T14 construct: Synthetic peptide, captured on a streptavidin-coated plate; also called peptide No. 21
T14 peptide: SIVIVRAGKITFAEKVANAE
Description: as §1

B1: anti-humanized TfR1 single-domain antibody-Fc fusion antibody 2H7-hFC1 (Fc fusion)
chain (part 1 of 2): ESGGGLVQPGESLRLSCVASGSIWSIYTMGWYRQAPGKQRDFVASITGDSTRTLESVKDRFIISRDNTKNTLYLQMNSLKPEDTAVYYCQAITSLGEYWGQGTQVTVSS
notes: Expressed in 293F cells, Protein A purified; labelled with pHrodo iFL Green in the internalization assays; also called VHH-hFc; not shown: human IgG1 Fc: hinge, CH2 and CH3 regions, from vector RJK-V4-hFC1; limits and junction (multiple cloning site) not stat
- OD450 [1]: 0.974
- P/N [1]: 5
- OD450 [2]: 1.49
- P/N [2]: 9.5
- OD450 [3]: 0.195
- OD450 [4]: 0.19
- OD450 [5]: 0.508
- P/N [5]: 4.7
- OD450 [6]: 0.977
- P/N [6]: 3.5
- OD450 [7]: 1.12
- P/N [7]: 6.4
- OD450 [8]: 0.217
- OD450 [9]: 0.247
- OD450 [10]: 0.147
- OD450 [11]: 0.206
- OD450 [12]: 0.155
- OD450 [13]: 0.229
- OD450 [14]: 0.16
